# Measurements reported in patent US20260151494A1 (ARO BIOTHERAPEUTICS, published 2026).
# Residue numbers refer to the chain shown, from its start.
# B1: CD71-binding FN3 domain SEQ ID NO: 269 (designed binder)
# chain: MSLPAPKNLVVSRVTEDSARLSWTAPDAAFDSFEIGYFENDYFGEAIVLTVPGSERSYDLTGLKPGTEYVVFIGGVKGGNWSAPLSAIFTT
# B2: CD71-binding FN3 domain SEQ ID NO: 285 (designed binder)
# chain: B1 chain with P26T, F38W, D41A, F43K, N80V, A83V
# B3: CD71-binding FN3 domain SEQ ID NO: 325 (designed binder)
# chain: B1 chain with D41L, F43L, V70W, F72Q, A87E
# B4: CD71-binding FN3 domain SEQ ID NO: 324 (designed binder)
# chain: B1 chain with V14I, D41L, F43L, V70W, F72Q, F89S
# B5: CD71-binding FN3 domain SEQ ID NO: 292 (designed binder)
# chain: B1 chain with F38W, D41A, F43K, N80V, A83V, P84S
# B6: CD71-binding FN3 domain SEQ ID NO: 271 (designed binder)
# chain: B1 chain with V14I, F38W, D41A, F43K, N80V, A83V
# B7: CD71-binding FN3 domain SEQ ID NO: 277 (designed binder)
# chain: B1 chain with N40L, D41T, F43Y, V70W, F72Q, N80G, W81F, A83E
# B8: CD71-binding FN3 domain SEQ ID NO: 284 (designed binder)
# chain: B1 chain with F38W, D41A, F43K, V70M, N80V, A83V
# B9: CD71-binding FN3 domain SEQ ID NO: 315 (designed binder)
# chain: B1 chain with D41L, F43L, V70W, F72Q, F89S
# B10: CD71-binding FN3 domain SEQ ID NO: 319 (designed binder)
# chain: B1 chain with D27G, D41L, F43L, V70W, F72Q, N80V, A83V
# B11: CD71-binding FN3 domain SEQ ID NO: 276 (designed binder)
# chain: B1 chain with G36A, N40L, F43V, V70W, F72Q, N80T, A83G, T91I
# B12: CD71-binding FN3 domain SEQ ID NO: 326 (designed binder)
# chain: B1 chain with F38W, D41A, F43K, V70W, F72Q, N80V, A83T
# B13: CD71-binding FN3 domain SEQ ID NO: 311 (designed binder)
# chain: B1 chain with F38W, D41A, F43K, N80S, A83N
# B14: CD71-binding FN3 domain SEQ ID NO: 272 (designed binder)
# chain: B1 chain with G36A, F38G, N40A, D41A, F43D, V48A, T50L, V70W, F72Q
# B15: CD71-binding FN3 domain SEQ ID NO: 297 (designed binder)
# chain: B1 chain with G36S, D41T, Y42W, F43Y, V70S, F72R, G74F, W81F, A83F
# B16: CD71-binding FN3 domain SEQ ID NO: 307 (designed binder)
# chain: B1 chain with D31N, D41L, F43L, V70W, F72Q, N80T, W81F
# B17: CD71-binding FN3 domain SEQ ID NO: 316 (designed binder)
# chain: B1 chain with V11I, D41L, F43L, V70W, F72Q
# B18: CD71-binding FN3 domain SEQ ID NO: 280 (designed binder)
# chain: B1 chain with P26L, D41L, F43L, V70W, F72Q
# B19: CD71-binding FN3 domain SEQ ID NO: 320 (designed binder)
# chain: B1 chain with A5V, F38W, D41A, F43K, V70W, F72Q
# B20: CD71-binding FN3 domain SEQ ID NO: 323 (designed binder)
# chain: B1 chain with D41L, F43L, V70W, F72Q, A83G
# B21: CD71-binding FN3 domain SEQ ID NO: 304 (designed binder)
# chain: B1 chain with D41L, F43L, N80V, A83V
# B22: CD71-binding FN3 domain SEQ ID NO: 275 (designed binder)
# chain: B1 chain with D41L, F43L, V70W, F72Q, S86V, I88E
# B23: CD71-binding FN3 domain SEQ ID NO: 283 (designed binder)
# chain: MSLPAPKNLVVSRVTEDSARLSWTAPDAAFDSFEIAYQELSLWGEAIVLTVPGSERSYDLTGLKPGTEYYVHIGGVKGGIWSSPLSAYSTT
# B24: CD71-binding FN3 domain SEQ ID NO: 313 (designed binder)
# chain: B1 chain with G36A, Y42W, F43A, V51I, V70W, F72Q
# B25: CD71-binding FN3 domain SEQ ID NO: 327 (designed binder)
# chain: B1 chain with F38W, D41A, F43K, V70W, F72Q
# B26: CD71-binding FN3 domain SEQ ID NO: 305 (designed binder)
# chain: B1 chain with G36A, N40Q, D41T, F43T, V70W, F72Q
# B27: CD71-binding FN3 domain SEQ ID NO: 296 (designed binder)
# chain: B1 chain with E34D, N40L, D41T, Y42W, F43Y, V70W, F72S, N80I, A83S
# B28: CD71-binding FN3 domain SEQ ID NO: 328 (designed binder)
# chain: B1 chain with E39G, D41L, F43L, V70W, F72Q
# B29: CD71-binding FN3 domain SEQ ID NO: 312 (designed binder)
# chain: B1 chain with D41L, F43L, V51I, V70W, F72Q
# B30: CD71-binding FN3 domain SEQ ID NO: 301 (designed binder)
# chain: B1 chain with A25T, D41L, F43L, V70W, F72Q
# B31: CD71-binding FN3 domain SEQ ID NO: 309 (designed binder)
# chain: B1 chain with K7E, D41L, F43L, V70W, F72Q
# B32: CD71-binding FN3 domain SEQ ID NO: 286 (designed binder)
# chain: B1 chain with G36V, F38A, N40P, D41V, Y42R, V70W, F72Q, N80E, A83S
# B33: CD71-binding FN3 domain SEQ ID NO: 300 (designed binder)
# chain: B1 chain with N40A, D41T, Y42P, F43N, V70K, N80R, A83K
# B34: CD71-binding FN3 domain SEQ ID NO: 308 (designed binder)
# chain: B1 chain with L21M, A25T, D41L, F43L, V70W, F72Q
# B35: CD71-binding FN3 domain SEQ ID NO: 298 (designed binder)
# chain: B1 chain with D41L, F43L, V70W, F72Q, G79D
# B36: CD71-binding FN3 domain SEQ ID NO: 299 (designed binder)
# chain: B1 chain with G36A, D41L, F43L, V70W, F72Q
# B37: CD71-binding FN3 domain SEQ ID NO: 278 (designed binder)
# chain: B1 chain with D41L, F43L, Y58H, V70W, F72Q
# B38: CD71-binding FN3 domain SEQ ID NO: 322 (designed binder)
# chain: B1 chain with N40I, D41T, Y42R, F43Y, V48I, T50F, V70W, F72Q
# B39: CD71-binding FN3 domain SEQ ID NO: 289 (designed binder)
# chain: B1 chain with G36A, N40I, D41A, Y42W, F43L, V70W, F72Q, N80A, W81Y, A83T
# B40: CD71-binding FN3 domain SEQ ID NO: 274 (designed binder)
# chain: MSLPAPKNLVVSRVTEDSARLSWTAPDAAFDSFEIVYWEQVGVGEAIVLTVPGSERSYDLTGLKPGTEYWVQIGGVKGGGFSEPLSAIFTT
# B41: CD71-binding FN3 domain SEQ ID NO: 329 (designed binder)
# chain: B1 chain with E34D, N40A, D41T, F43Y, V70R, F72W, N80Y, W81Y, A83N
# B42: CD71-binding FN3 domain SEQ ID NO: 306 (designed binder)
# chain: B1 chain with Y37H, D41L, F43L, T67I, V70W, F72Q, N80V, A83V, P84S
# B43: CD71-binding FN3 domain SEQ ID NO: 282 (designed binder)
# chain: MSLPAPKNLVVSRVTEDSARLSWTAPDAAFDSFDIGYFELTWYGEAIVLTVPGSERSYDLTGLKPGTEYWVSIGGVKGGRFSEPLYARFTT
# Legend:
# [1] = biological target: T1, human CD71 extracellular domain (CD71-ECD) (human, UniProt P02786 89-760); assay: primary ELISA; further: test concentration or dose not given here
# T1 construct: also called hCD71; human CD71-ECD
# T1 sequence (P02786 89-760): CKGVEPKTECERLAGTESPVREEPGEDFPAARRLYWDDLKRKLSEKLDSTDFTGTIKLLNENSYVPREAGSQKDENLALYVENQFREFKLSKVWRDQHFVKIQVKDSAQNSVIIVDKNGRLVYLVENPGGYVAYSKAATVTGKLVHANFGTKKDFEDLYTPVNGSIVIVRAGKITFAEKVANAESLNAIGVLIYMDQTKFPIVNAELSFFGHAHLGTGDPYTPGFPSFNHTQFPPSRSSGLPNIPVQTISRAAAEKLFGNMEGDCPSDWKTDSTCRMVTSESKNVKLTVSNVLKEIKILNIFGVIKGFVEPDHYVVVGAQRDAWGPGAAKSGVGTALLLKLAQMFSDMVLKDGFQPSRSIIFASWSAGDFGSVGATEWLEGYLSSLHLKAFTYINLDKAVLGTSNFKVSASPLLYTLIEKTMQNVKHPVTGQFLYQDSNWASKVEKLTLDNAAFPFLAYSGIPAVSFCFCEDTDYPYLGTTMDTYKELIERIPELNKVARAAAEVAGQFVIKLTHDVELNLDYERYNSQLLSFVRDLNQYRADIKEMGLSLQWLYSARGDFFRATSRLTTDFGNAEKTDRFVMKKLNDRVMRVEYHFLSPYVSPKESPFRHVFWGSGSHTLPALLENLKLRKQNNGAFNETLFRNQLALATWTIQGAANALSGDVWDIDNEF
# [2] = biological target: T1, human CD71 extracellular domain …; assay: primary ELISA, RLU ratio to HSA
Binder,RLU [1] [RLU],hCD71:HSA [2]
B1,4.35e+06,348
B2,2.81e+06,201
B3,2.43e+06,114
B4,3.13e+06,294
B5,4.33e+06,291
B6,2.57e+06,180
B7,4.13e+06,276
B8,2.37e+06,195
B9,2.49e+06,41
B10,3.35e+06,137
B11,3.13e+06,62
B12,1.5e+06,79
B13,2.38e+06,133
B14,2.83e+06,289
B15,2.64e+06,512
B16,3.75e+06,50
B17,3.03e+06,301
B18,3.21e+06,103
B19,2.36e+06,172
B20,2.75e+06,62
B21,3.39e+06,274
B22,3.4e+06,322

Binder,RLU [1] [RLU],hCD71:HSA [2]
B23,2.07e+06,77
B24,2.97e+06,480
B25,2.66e+06,143
B26,3.62e+06,315
B27,3.39e+06,99
B28,2.18e+06,25
B29,3.1e+06,324
B30,3.19e+06,152
B31,3.57e+06,287
B32,2.66e+06,131
B33,3.88e+06,284
B34,3.55e+06,127
B35,3.67e+06,287
B36,3.26e+06,375
B37,3.46e+06,435
B38,3.38e+06,171
B39,3.57e+06,77
B40,2.37e+06,296
B41,3.28e+06,90
B42,1.17e+06,79
B43,3.2e+06,240
